Results as given in US20140072613A1, “Compositions and Methods for Treating Cutaneous Scarring” (priority 2012, published 2014).

What was measured:
[1] = biological target: CaMK1δ (h) (Homo sapiens, UniProt Q8IU85); test: biochemical; conditions: CaMKIδ(h); 100 μM
From the text: (§1) Specifically, in these assays, a positively charged substrate is phosphorylated with a radiolabeled phosphate group from an ATP if the kinase is not inhibited by an inhibitor peptide. The positively charged substrate then is attracted to a negatively charged filter membrane, quantified with a scintillation counter, and compared to a 100% activity control.

[2] = biological target: CaMKI (h) (Homo sapiens, UniProt Q14012); test: biochemical; conditions: CaMKI(h); 100 μM
From the text: as §1

[3] = biological target: FGFR2 (h) (Homo sapiens, UniProt P21802); test: biochemical; conditions: FGFR2(h); 100 μM
From the text: as §1

[4] = biological target: Fes(h) (Homo sapiens, UniProt P07332); test: biochemical; conditions: 100 μM
From the text: as §1

[5] = biological target: MSK1 (h) (Homo sapiens, UniProt O75582); test: biochemical; conditions: MSK1(h); 100 μM
From the text: as §1

[6] = biological target: MAPKAP-K2 (h) (Homo sapiens, UniProt P49137); test: Millipore radiometric kinase assay (IC50 Profiler Express / kinase profiling); format: biochemical; conditions: MAPKAP-K2(h); 100 μM
From the text: as §1

[7] = biological target: MAPKAP-K3 (h) (Homo sapiens, UniProt Q16644); test: as above; format: biochemical; conditions: MAPKAP-K3(h); 100 μM
From the text: as §1

[8] = biological target: TrkB (h) (Homo sapiens, UniProt Q16620); test: as above; format: biochemical; conditions: TrkB(h); 100 μM
From the text: as §1

[9] = biological target: 266 human kinases (Homo sapiens, UniProt O14757); test: biochemical; format: biochemical; conditions: CHK1(h); 100 μM
Procedure, shortened: (§2)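 Kinase phosphorylates cationic substrate with radiolabelled ATP phosphate; substrate retained on anionic filter membrane; scintillation count; % of 100% activity control.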

[10] = biological target: 266 human kinases (Homo sapiens, UniProt O14965); test: biochemical; format: biochemical; conditions: Aurora-A(h); 100 μM
Procedure, shortened: as §2

[11] = biological target: 266 human kinases (Homo sapiens, UniProt P00519); test: biochemical; format: biochemical; conditions: Abl(h); 100 μM
Procedure, shortened: as §2

[12] = biological target: 266 human kinases (Homo sapiens, UniProt P00519, Q252H); test: biochemical; format: biochemical; conditions: Abl(Q252H)(h); 100 μM
Procedure, shortened: as §2

[13] = biological target: 266 human kinases (Homo sapiens, UniProt P35916); test: biochemical; format: biochemical; conditions: Flt4(h); 100 μM
Procedure, shortened: as §2

[14] = biological target: 266 human kinases (Homo sapiens, UniProt P45984); test: biochemical; format: biochemical; conditions: JNK2α2(h); 100 μM
Procedure, shortened: as §2

[15] = biological target: 266 human kinases (Homo sapiens, UniProt P49840); test: biochemical; format: biochemical; conditions: GSK3α(h); 100 μM
Procedure, shortened: as §2

[16] = biological target: 266 human kinases (Homo sapiens, UniProt P50750); test: biochemical; format: biochemical; conditions: CDK9/cyclin T1(h); 100 μM
Procedure, shortened: as §2

[17] = biological target: T1, 266 human kinases (Homo sapiens, UniProt P51817); test: biochemical; format: biochemical; conditions: PrKX(h); 100 μM
T1 sequence (P51817 1-358): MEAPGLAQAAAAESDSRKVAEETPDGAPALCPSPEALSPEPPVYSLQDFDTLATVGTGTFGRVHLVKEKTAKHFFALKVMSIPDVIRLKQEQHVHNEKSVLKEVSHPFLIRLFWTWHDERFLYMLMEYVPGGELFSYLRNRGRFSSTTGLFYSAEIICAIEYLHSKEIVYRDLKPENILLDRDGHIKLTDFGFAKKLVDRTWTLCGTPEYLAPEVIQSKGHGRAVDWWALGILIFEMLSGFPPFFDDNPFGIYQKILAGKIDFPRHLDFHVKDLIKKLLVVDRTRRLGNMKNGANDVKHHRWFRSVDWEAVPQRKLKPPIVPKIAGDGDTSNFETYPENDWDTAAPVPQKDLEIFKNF
Procedure, shortened: as §2

[18] = biological target: 266 human kinases (Homo sapiens, UniProt P53667); test: biochemical; format: biochemical; conditions: LIMK1(h); 100 μM
Procedure, shortened: as §2

[19] = biological target: 266 human kinases (Homo sapiens, UniProt Q06187, R28H); test: biochemical; format: biochemical; conditions: BTK(R28H)(h); 100 μM
Procedure, shortened: as §2

[20] = biological target: T2, 266 human kinases (Homo sapiens, UniProt Q13188); test: biochemical; format: biochemical; conditions: MST2(h); 100 μM
T2 sequence (Q13188 1-491): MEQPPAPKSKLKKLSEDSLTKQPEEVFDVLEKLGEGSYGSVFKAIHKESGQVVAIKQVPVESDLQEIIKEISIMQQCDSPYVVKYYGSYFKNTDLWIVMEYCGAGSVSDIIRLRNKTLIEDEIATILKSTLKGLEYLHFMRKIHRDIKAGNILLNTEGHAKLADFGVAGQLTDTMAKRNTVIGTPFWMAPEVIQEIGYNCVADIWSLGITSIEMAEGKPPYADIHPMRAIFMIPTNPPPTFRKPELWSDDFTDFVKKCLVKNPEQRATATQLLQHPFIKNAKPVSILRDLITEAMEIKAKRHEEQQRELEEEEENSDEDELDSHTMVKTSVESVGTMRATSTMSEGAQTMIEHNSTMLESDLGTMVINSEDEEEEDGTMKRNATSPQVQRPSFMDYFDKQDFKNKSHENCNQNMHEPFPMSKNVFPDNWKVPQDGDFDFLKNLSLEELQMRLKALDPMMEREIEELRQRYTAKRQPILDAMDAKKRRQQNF
Procedure, shortened: as §2

[21] = biological target: 266 human kinases (Homo sapiens, UniProt Q16832); test: biochemical; format: biochemical; conditions: DDR2(h); 100 μM
Procedure, shortened: as §2

[22] = biological target: 266 human kinases (Homo sapiens, UniProt Q9Y5S2); test: biochemical; format: biochemical; conditions: MRCKβ(h); 100 μM
Procedure, shortened: as §2

[23] = biological target: 266 human kinases (Homo sapiens, UniProt P11362, V561M); test: biochemical; format: biochemical; conditions: FGFR1(V561M)(h); 100 μM
Procedure, shortened: as §2

[24] = biological target: 266 human kinases (Homo sapiens, UniProt Q9HCP0); test: biochemical; format: biochemical; conditions: CK1γ1(h); 100 μM
Procedure, shortened: as §2

MAPKAP-K2 (h), sequence (P49137 whole entry): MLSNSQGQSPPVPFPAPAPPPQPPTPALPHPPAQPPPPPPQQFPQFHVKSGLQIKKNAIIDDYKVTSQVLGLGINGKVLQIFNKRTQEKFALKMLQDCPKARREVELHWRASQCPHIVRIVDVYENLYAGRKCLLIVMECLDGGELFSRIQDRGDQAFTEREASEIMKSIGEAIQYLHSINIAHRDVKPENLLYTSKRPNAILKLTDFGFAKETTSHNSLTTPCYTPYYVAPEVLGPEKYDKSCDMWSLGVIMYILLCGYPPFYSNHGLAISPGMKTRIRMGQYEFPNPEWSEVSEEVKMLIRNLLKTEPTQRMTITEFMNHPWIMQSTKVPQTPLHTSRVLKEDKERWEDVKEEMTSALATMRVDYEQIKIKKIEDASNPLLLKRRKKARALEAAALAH
CaMK1δ (h), sequence (Q8IU85 whole entry): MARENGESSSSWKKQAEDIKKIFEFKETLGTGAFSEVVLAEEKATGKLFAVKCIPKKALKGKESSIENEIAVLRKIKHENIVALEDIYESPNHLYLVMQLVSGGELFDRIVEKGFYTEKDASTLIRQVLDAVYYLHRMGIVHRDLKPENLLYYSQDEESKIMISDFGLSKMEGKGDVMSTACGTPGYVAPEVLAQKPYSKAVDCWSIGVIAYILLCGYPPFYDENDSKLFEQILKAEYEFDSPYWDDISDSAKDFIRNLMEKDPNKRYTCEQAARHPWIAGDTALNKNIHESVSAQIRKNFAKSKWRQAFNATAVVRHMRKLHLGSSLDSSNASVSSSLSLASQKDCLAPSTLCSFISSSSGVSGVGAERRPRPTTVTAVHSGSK
CaMKI (h), sequence (Q14012 whole entry): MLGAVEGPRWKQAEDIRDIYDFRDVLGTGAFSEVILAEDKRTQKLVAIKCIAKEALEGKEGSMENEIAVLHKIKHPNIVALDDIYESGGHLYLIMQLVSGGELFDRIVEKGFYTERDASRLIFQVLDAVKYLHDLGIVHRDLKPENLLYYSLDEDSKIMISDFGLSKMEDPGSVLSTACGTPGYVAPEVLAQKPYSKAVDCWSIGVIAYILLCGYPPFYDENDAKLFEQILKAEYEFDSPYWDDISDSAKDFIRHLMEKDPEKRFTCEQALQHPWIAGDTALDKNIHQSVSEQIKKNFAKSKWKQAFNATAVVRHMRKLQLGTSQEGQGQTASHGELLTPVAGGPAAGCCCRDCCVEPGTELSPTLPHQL
Fes(h), sequence (P07332 whole entry): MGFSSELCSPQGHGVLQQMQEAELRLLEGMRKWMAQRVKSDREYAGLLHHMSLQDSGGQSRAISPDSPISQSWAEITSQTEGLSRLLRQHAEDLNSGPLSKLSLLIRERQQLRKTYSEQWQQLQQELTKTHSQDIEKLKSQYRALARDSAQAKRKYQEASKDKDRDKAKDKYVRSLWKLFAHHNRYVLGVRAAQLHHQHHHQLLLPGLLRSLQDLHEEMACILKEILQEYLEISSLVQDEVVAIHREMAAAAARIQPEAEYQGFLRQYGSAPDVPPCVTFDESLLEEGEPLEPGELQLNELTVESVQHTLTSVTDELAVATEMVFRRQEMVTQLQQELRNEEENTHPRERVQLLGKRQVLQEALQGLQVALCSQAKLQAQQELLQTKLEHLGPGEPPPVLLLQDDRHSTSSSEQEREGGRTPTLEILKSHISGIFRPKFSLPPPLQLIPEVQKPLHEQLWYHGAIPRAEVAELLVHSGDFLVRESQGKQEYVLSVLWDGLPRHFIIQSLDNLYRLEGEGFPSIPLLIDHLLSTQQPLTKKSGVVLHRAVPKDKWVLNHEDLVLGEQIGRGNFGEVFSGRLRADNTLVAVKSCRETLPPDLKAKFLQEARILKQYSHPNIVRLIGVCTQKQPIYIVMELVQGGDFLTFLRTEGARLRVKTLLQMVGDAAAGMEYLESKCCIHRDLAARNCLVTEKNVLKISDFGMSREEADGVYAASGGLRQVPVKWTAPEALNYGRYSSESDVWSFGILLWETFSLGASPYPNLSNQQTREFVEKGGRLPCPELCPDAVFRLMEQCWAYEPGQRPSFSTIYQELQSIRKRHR
MSK1 (h), sequence (O75582 whole entry): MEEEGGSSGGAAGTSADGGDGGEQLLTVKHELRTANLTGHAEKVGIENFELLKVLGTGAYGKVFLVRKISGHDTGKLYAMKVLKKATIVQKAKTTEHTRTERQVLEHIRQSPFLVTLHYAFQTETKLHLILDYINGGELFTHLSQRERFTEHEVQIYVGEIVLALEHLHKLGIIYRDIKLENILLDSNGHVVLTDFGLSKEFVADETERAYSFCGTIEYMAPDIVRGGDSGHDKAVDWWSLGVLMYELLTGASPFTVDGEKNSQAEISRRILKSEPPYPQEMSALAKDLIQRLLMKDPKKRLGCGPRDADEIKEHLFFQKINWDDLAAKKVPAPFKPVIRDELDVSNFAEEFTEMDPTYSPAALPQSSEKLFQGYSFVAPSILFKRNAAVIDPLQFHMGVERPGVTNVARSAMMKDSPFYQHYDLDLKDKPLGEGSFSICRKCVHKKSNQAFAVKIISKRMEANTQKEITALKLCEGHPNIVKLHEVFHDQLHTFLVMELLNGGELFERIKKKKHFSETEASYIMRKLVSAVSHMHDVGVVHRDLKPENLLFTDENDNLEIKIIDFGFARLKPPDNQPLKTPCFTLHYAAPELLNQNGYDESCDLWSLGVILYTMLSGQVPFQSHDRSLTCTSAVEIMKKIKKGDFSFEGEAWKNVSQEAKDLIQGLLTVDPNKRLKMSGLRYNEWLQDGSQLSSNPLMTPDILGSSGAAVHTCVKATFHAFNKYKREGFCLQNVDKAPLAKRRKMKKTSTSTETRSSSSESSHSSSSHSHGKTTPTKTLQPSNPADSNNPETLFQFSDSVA
MAPKAP-K3 (h), sequence (Q16644 whole entry): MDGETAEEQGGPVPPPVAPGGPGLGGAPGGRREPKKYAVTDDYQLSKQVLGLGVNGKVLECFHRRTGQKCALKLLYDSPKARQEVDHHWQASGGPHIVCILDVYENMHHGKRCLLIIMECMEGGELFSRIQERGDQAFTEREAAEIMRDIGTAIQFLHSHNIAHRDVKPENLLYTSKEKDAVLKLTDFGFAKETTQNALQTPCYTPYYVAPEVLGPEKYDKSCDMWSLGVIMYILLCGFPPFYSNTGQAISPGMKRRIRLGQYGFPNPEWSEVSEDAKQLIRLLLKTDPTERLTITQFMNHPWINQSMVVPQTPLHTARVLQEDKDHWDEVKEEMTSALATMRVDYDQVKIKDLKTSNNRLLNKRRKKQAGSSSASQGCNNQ
266 human kinases (Homo sapiens, UniProt P11362, V561M), sequence (P11362 22-822 V561M): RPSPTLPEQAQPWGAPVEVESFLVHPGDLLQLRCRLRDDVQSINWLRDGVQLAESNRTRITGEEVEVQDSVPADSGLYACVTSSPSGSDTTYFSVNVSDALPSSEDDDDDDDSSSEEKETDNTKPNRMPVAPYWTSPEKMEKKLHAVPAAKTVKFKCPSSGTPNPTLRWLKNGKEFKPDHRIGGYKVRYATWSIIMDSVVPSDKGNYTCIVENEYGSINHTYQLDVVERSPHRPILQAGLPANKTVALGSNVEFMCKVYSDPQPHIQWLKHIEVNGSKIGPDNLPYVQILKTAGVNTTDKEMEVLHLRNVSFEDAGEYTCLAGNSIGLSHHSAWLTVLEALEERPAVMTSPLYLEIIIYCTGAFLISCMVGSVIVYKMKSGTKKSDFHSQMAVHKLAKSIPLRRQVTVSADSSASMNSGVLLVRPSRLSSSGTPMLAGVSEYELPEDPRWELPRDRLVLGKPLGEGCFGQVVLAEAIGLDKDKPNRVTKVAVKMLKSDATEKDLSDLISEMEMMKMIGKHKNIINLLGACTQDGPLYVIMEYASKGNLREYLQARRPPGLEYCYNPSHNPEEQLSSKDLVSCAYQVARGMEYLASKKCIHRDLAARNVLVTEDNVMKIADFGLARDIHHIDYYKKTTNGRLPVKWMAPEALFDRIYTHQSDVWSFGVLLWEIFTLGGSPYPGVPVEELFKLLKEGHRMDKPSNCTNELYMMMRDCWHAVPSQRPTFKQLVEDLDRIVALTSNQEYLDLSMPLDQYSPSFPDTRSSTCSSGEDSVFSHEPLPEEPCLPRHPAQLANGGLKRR
266 human kinases (Homo sapiens, UniProt Q06187, R28H), sequence (Q06187 whole entry R28H): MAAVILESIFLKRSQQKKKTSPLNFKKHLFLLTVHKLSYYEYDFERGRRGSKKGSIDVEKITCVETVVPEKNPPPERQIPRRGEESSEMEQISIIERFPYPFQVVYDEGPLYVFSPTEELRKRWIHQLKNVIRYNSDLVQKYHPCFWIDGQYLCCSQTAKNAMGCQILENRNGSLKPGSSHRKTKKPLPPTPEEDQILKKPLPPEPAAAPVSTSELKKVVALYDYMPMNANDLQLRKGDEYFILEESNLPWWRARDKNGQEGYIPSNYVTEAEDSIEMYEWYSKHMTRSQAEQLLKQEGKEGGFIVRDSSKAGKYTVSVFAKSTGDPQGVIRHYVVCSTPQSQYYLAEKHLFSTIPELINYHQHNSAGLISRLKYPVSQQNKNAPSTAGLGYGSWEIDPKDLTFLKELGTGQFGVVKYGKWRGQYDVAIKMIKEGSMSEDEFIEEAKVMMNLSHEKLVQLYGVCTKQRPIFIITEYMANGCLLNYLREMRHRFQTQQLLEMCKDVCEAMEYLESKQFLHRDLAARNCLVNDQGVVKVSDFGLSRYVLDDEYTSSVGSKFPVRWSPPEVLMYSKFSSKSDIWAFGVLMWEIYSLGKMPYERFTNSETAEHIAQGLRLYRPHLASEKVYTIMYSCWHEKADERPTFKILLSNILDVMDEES
266 human kinases (Homo sapiens, UniProt P50750), sequence (P50750 whole entry): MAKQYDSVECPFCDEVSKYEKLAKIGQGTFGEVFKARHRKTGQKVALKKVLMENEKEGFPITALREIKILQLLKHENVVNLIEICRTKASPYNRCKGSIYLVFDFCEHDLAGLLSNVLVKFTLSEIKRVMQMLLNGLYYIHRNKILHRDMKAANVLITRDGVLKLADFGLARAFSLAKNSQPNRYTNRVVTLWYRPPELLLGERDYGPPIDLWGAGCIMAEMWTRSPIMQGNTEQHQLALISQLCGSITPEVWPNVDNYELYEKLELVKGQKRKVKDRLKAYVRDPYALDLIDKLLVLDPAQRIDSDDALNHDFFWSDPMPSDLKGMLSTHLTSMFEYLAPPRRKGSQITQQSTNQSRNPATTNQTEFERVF

| Sequence | % activity [1] [%] | % activity [2] [%] | % activity [3] [%] | % activity [4] [%] | % activity [5] [%] | % activity [6] [%] | % activity [7] [%] | % activity [8] [%] | other results |
| --- | --- | --- | --- | --- | --- | --- | --- | --- | --- |
| HRRIKAWLKKIKALARQLGVAA (mammal) [MMI-0500] | 0 | −1 | 12 | 23 | 8 | 9 | 9 | 12 | % activity [9]: 65%; % activity [10]: 110%; % activity [11]: 16%; % activity [12]: 40%; % activity [13]: 73%; % activity [14]: 81%; % activity [15]: 175%; % activity [16]: 6%; % activity [17]: 57%; % activity [18]: 87%; % activity [19]: 10%; % activity [20]: 2%; % activity [21]: 79%; % activity [22]: −10% |
| YARAAARQARAKALNRQLGVA (mammal) [MMI-0200] | 47 | 21 | 73 | 74 | 50 | 35 | 39 | 7 | % activity [23]: 72%; % activity [24]: 98% |
